Measured values taken from the MegaScale stability set (Tsuboyama et al. 2023).

B1: HEEH_KT_rd6_3546 (parent)
chain: SEEDKEREHWERLNRDFELRVLDTTFIAHHAEEVIKLLRWLEK
B2: EEHEE_rd4_0469 (parent)
chain: ITIHVNGVTYHFDNPEEAEKFAQKMAKTYQLKMEIHNGEFHME

Variants of: B1
Test: folding stability dG (cDNA display proteolysis); higher = more stable
Settings: PBS, room temperature

Folding stability dG [kcal/mol] of substitutions, site by site:
L41: M 1.22 | I 1.14 | E -0.48 | K 0.491 | G 0.088 | Y 0.761 | T 0.442 | S -0.005 | A 0.58 | V 1.21 | R 0.586 | H 0.356 | Q 0.519 | F 1.38 | P 0.119 | N -0.295 | D -0.253 | C 1.83 | W 1.22
L38: F 1.39 | R 0.8 | H 0.371 | T 0.188 | G -0.072 | S 0.079 | N 0.045 | D -0.361 | W 1.61 | M 0.931 | E -0.1 | I 1.09 | A 0.316 | Y 0.971 | C 1.78 | Q 0.257 | K 0.405 | P -0.432 | V 0.9
W40: L 1.01 | G 0.388 | Q 0.781 | M 1.11 | T 0.373 | S 0.639 | E 0.585 | K 0.6 | A 0.156 | I 1.31 | R 0.934 | N 0.617 | H 0.768 | D 0.502 | F 1.1 | P -0.109 | C 1.55 | Y 1.13 | V 0.885
K43: A 1.27 | R 1.65 | F 1.57 | S 1.2 | M 1.5 | C 1.57 | P 0.967 | T 1.22 | W 2.03 | L 1.36 | I 1.38 | G 1.82 | Y 1.8 | E 1.3 | N 1.3 | D 1.45 | H 1.17 | Q 1.36 | V 1.56
K36: E 0.928 | A 1.56 | H 1.24 | Y 1.82 | L 1.92 | D 1 | T 1.28 | P 0.419 | V 1.87 | M 1.93 | Q 1.23 | W 1.87 | I 2.02 | R 1.51 | S 1.23 | N 1.28 | C 2.09 | G 1.14 | F 2.13
E42: V 2.26 | I 2.41 | R 1.85 | G 1.7 | F 2.75 | Y 2.57 | A 1.82 | T 2.1 | W 2.59 | P 0.291 | S 1.84 | Q 1.67 | D 1.07 | N 1.56 | L 2.42 | H 1.63 | K 1.69 | M 2.4
R39: H 1.17 | G 0.742 | E 0.969 | I 1.77 | P 0.359 | N 0.829 | S 1.01 | L 1.59 | V 1.33 | Y 1.54 | K 1.28 | A 0.866 | W 1.55 | M 1.21 | T 1.37 | D 0.762 | F 1.7 | Q 0.982
L37: D -0.437 | K 0.138 | Q 0.133 | Y 1.23 | V 0.922 | N 0.031 | P -0.172 | G 0.136 | W 1.63 | A 0.846 | R 0.273 | M 1.09 | I 1.23 | H 0.36 | F 1.62 | S 0.285 | T 0.61 | E -0.07
I35: W 1.59 | K 0.927 | N 0.739 | D 0.67 | S 0.508 | Q 0.925 | P -0.407 | M 1.33 | C 1.88 | F 1.49 | H 0.843 | Y 1.33 | A 1.03 | E 0.843 | T 0.787 | G 0.628 | V 1.17 | R 1.12 | L 1.47
V34: Q -0.202 | Y 1.06 | T 0.62 | R 0.162 | W 1.47 | S 0.133

Variants of: B2
Test: as above
Settings: PBS, room temperature

Folding stability dG [kcal/mol]: each site, then its substitutions
T9: H 1.11 | F 0.925 | G 1.11 | A 1.39 | C 1.86 | E 0.827 | D 0.639 | I 1.19 | N 0.826 | K 1.51 | M 1.21 | L 1.15
G7: N 1.07 | A 0.95 | V 1.83 | F 1.65 | R 1.04 | S 1.07 | T 0.96 | M 1.22 | I 2.4 | E 0.803 | H 1.13 | P -0.022 | D 0.859 | K 1 | L 1.33 | W 1.43 | Q 0.959 | Y 1.26
V8: G 0.858 | I 1.13 | L 1.19 | N 1.12 | D 1.01 | S 1.09 | Y 1.29 | M 1.18 | A 1.11 | E 1.09 | R 1.43 | W 1.47 | Q 1.06 | H 1.11 | K 1.38 | F 1.36 | T 1.12
I1: F 1.08 | W 1.32 | G 0.443 | P 0.64 | V 1.02 | S 0.683 | K 0.846 | H 0.725 | A 0.749 | R 1.01 | Y 1.16 | D 0.302 | E 0.225 | N 0.57 | T 0.826 | L 0.959 | Q 0.734 | M 0.992 | C 1.65
I3: R 0.201 | P -0.854 | G 0.58 | K 0.19 | N -0.377 | F 0.925 | Y 0.837 | C 1.55 | A 0.525 | Q -0.059 | H 0.159 | V 1.35 | M 0.706 | D 0.068 | E -0.263 | S -0.094 | T 0.127 | L 0.868 | W 0.819
T2: F 1.42 | D 1.13 | R 1.46 | Q 0.972 | S 1.08 | M 1.01 | L 1.25 | C 1.72 | P 0.663 | Y 1.36 | W 1.47 | G 0.665 | N 1.17 | V 1.13 | A 0.989 | I 1.24 | E 0.797 | K 1.31 | H 1.51
N6: Y 1.73 | A 1.3 | F 2.18 | H 1.35 | T 1 | E 1.2 | D 1.11 | W 1.88 | V 1.42 | K 1.37 | R 1.27 | L 1.79 | S 1.07 | Q 1.26 | G 1.14 | M 1.73 | I 1.51 | P 0.4
V5: S 0.42 | F 1.24 | R 0.306 | D 0.38 | W 1.2 | E 0.203 | H 0.711 | A 0.938 | K 0.112 | Q 0.252 | L 0.899 | M 0.927 | Y 0.92 | G 0.398 | I 1.14 | T 0.534 | N 0.312 | P -0.199 | C 1.77
H4: A 0.76 | S 0.684 | D 0.586 | F 1.08 | T 0.943 | Y 1.29 | C 1.77 | K 0.918 | G 0.633 | P 0.265 | M 0.82 | R 1.08 | V 0.899 | W 1.35 | Q 0.774 | E 0.692 | N 0.813 | L 0.939 | I 0.994
